Experimental data published in US20190263934A1.
Blank lines part the entries; values can stand above or below the substance they belong to.

What was measured:
[1] = biological target: biotinylated hFcRn (human) (UniProt P55899); assay: SPR Biacore, pH 6.0
[2] = biological target: biotinylated hFcRn (human) (UniProt P55899); assay: SPR Biacore, pH 7.4
[3] = biological target: rFcRn (rat) (UniProt P13599); assay: SPR Biacore, pH 7.4
Target sequence in this assay (P13599 23-298 limits assumed, form in doubt, chain 1 of 2): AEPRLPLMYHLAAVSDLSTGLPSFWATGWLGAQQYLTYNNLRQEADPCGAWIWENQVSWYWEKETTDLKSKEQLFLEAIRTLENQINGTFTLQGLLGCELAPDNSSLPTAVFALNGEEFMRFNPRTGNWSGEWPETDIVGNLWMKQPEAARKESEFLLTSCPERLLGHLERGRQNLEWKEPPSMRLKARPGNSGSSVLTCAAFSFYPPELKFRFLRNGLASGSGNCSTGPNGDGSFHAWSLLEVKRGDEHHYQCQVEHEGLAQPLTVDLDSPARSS
Target sequence in this assay (P07151 21-119 limits assumed, form in doubt, chain 2 of 2, further chain): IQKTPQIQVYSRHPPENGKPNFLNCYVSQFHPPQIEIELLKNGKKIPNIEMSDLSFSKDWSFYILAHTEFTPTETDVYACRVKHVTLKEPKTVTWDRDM

[4] = biological target: biotinylated hFcRn (human) (UniProt P55899); assay: SPR Biacore, pH 7.4, 1000 nM antibody
[5] = biological target: rFcRn (rat) (UniProt P13599); assay: SPR Biacore, pH 7.4, 1000 nM antibody
Target sequence in this assay (P13599 23-298 limits assumed, form in doubt, chain 1 of 2): as the sequence (P13599 23-298 limits assumed, form in doubt, chain 1 of 2) above
Target sequence in this assay (P07151 21-119 limits assumed, form in doubt, chain 2 of 2, further chain): as the sequence (P07151 21-119 limits assumed, form in doubt, chain 2 of 2, further chain) above

[6] = biological target: rFcRn (rat) (UniProt P13599); assay: BLI Octet, pH 6.0, purified antibody
Target sequence in this assay (P13599 23-298 limits assumed, form in doubt, chain 1 of 2): as the sequence (P13599 23-298 limits assumed, form in doubt, chain 1 of 2) above
Target sequence in this assay (P07151 21-119 limits assumed, form in doubt, chain 2 of 2, further chain): as the sequence (P07151 21-119 limits assumed, form in doubt, chain 2 of 2, further chain) above

[7] = biological target: biotinylated hFcRn (human) (UniProt P55899); assay: SPR Biacore, pH 7.4; remark: listed apart in the source
[8] = biological target: Human CD16a (FcγRIIIa) V158 with C-terminal HPC4 tag (human) (UniProt P08637); assay: SPR Biacore FcγRIIIa
Human CD16a (FcγRIIIa) V158 with C-terminal HPC4 tag (human), sequence (P08637 17-208 F176V): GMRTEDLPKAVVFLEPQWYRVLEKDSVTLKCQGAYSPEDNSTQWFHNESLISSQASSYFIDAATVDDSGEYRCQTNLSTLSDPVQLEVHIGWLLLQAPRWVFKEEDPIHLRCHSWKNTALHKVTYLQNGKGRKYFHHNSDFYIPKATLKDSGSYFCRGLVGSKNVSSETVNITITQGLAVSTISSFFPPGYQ

[9] = biological target: biotinylated hFcRn (human) (UniProt P55899); assay: SPR Biacore, pH 6.0; remark: listed apart in the source
[10] = biological target: rFcRn (rat) (UniProt P13599); assay: SPR Biacore, pH 6.0
Target sequence in this assay (P13599 23-298 limits assumed, form in doubt, chain 1 of 2): as the sequence (P13599 23-298 limits assumed, form in doubt, chain 1 of 2) above
Target sequence in this assay (P07151 21-119 limits assumed, form in doubt, chain 2 of 2, further chain): as the sequence (P07151 21-119 limits assumed, form in doubt, chain 2 of 2, further chain) above

[11] = biological target: rFcRn (rat) (UniProt P13599); assay: SPR Biacore, pH 6.0; remark: listed apart in the source
Target sequence in this assay (P13599 23-298 limits assumed, form in doubt, chain 1 of 2): as the sequence (P13599 23-298 limits assumed, form in doubt, chain 1 of 2) above
Target sequence in this assay (P07151 21-119 limits assumed, form in doubt, chain 2 of 2, further chain): as the sequence (P07151 21-119 limits assumed, form in doubt, chain 2 of 2, further chain) above

[12] = biological target: Human CD16a (FcγRIIIa) V158 with C-terminal HPC4 tag (human) (UniProt P08637); assay: SPR Biacore, captured FcγRIIIa-V158
[13] = biological target: rFcRn (rat) (UniProt P13599); assay: BLI Octet screen, pH 6.0
Target sequence in this assay (P13599 23-298 limits assumed, form in doubt, chain 1 of 2): as the sequence (P13599 23-298 limits assumed, form in doubt, chain 1 of 2) above
Target sequence in this assay (P07151 21-119 limits assumed, form in doubt, chain 2 of 2, further chain): as the sequence (P07151 21-119 limits assumed, form in doubt, chain 2 of 2, further chain) above

[14] = biological target: biotinylated hFcRn (human) (UniProt P55899); assay: Biacore SPR, pH 6.0, bivalent fit
[15] = biological target: rFcRn (rat) (UniProt P13599); assay: Biacore SPR, pH 6.0, bivalent fit
Target sequence in this assay (P13599 23-298, form in doubt, chain 1 of 2): as the sequence (P13599 23-298 limits assumed, form in doubt, chain 1 of 2) above
Target sequence in this assay (P07151 21-119, form in doubt, chain 2 of 2, further chain): as the sequence (P07151 21-119 limits assumed, form in doubt, chain 2 of 2, further chain) above

[16] = biological target: biotinylated human FcRn (hFcRn; p51 subunit residues 24-297 with C-terminal Avi-tag, β2-m residues 21-119) (human) (UniProt P55899); assay: Biacore SPR, Biotin CAPture, pH 7.4, 1000 nM antibody, steady state
[17] = biological target: biotinylated human FcRn (hFcRn; p51 subunit residues 24-297 with C-terminal Avi-tag, β2-m residues 21-119) (human) (UniProt P55899); assay: Biacore SPR, pH 6.0, apparent affinity
[18] = biological target: biotinylated human FcRn (hFcRn; p51 subunit residues 24-297 with C-terminal Avi-tag, β2-m residues 21-119) (human) (UniProt P55899); assay: Biacore SPR, pH 7.4, steady state, 1000 nM antibody
[19] = biological target: biotinylated human FcRn (hFcRn; p51 subunit residues 24-297 with C-terminal Avi-tag, β2-m residues 21-119) (human) (UniProt P55899); assay: Biacore SPR, human FcRn, pH 7.4, steady state
[20] = biological target: Human CD16a (FcγRIIIa residues 17-208, C-terminal HPC4 tag, valine at position 158) (human) (UniProt P08637); assay: Biacore SPR, HPC4-captured FcγRIIIa-V158, pH 7.4
Human CD16a (FcγRIIIa residues 17-208, C-terminal HPC4 tag, valine at position 158) (human), sequence (P08637 17-208 F176V): as the sequence (P08637 17-208 F176V) above

[21] = biological target: biotinylated human FcRn (hFcRn; p51 subunit residues 24-297 with C-terminal Avi-tag, β2-m residues 21-119) (human) (UniProt P55899); assay: Biacore SPR; pH 6.0 affinity (M^-1) over pH 7.4 steady state RU
[22] = biological target: biotinylated human FcRn (hFcRn; p51 subunit residues 24-297 with C-terminal Avi-tag, β2-m residues 21-119) (human) (UniProt P55899); assay: Biacore SPR, Biotin CAPture of biotinylated human FcRn, pH 6.0
[23] = biological target: biotinylated human FcRn (hFcRn; p51 subunit residues 24-297 with C-terminal Avi-tag, β2-m residues 21-119) (human) (UniProt P55899); assay: Biacore SPR, human FcRn, pH 6.0 (column 'Affinity, pH 6.0 (nM)')
[24] = biological target: biotinylated human FcRn (hFcRn; p51 subunit residues 24-297 with C-terminal Avi-tag, β2-m residues 21-119) (human) (UniProt P55899); assay: Biacore SPR; second ratio column (inverse of c7)
[25] = biological target: Human CD16a (FcγRIIIa) V158 with C-terminal HPC4 tag (human) (UniProt P08637); assay: Biacore SPR, captured FcγRIIIa-V158, relative to WT of the same backbone
[26] = biological target: mouse FcRn (mouse) (UniProt Q61559); assay: Biacore SPR, pH 7.4, steady state
[27] = biological target: biotinylated hFcRn (human) (UniProt P55899); assay: Biacore SPR, pH 7.4, steady state
[28] = biological target: biotinylated cynomolgus FcRn (cynomolgus) (UniProt Q8SPV9); assay: Biacore SPR, pH 7.4, steady state
[29] = biological target: mouse FcRn (mouse) (UniProt Q61559); assay: Biacore SPR, pH 6.0
[30] = biological target: biotinylated hFcRn (human) (UniProt P55899); assay: Biacore SPR, pH 6.0
[31] = biological target: biotinylated cynomolgus FcRn (cynomolgus) (UniProt Q8SPV9); assay: Biacore SPR, pH 6.0

Kd [1]: 342 nM | Steady State RU [2]: 13.2 RU | Steady State RU [3]: 53.9 RU | Steady State RU [4]: 13.2 RU | Steady State RU [5]: 53.9 RU | koff [6]: 0.00066 s⁻¹ | Steady State RU [7]: 13.1 RU | % reduction in binding response vs wild-type [8]: 50% | koff [9]: 0.045 s⁻¹ | Kd [10]: 18 nM | koff [10]: 0.00121 s⁻¹
Substance: mAb1 M252Y/S254T/T256E (antibody)

Kd [11]: 5.9 nM | Steady State RU [2]: 9.7 RU | Steady State RU [3]: 56 RU | Kd [10]: 5.86 nM
Substance: mAb1 M252Y/T256D (antibody)

Kd [1]: 272 nM | koff [1]: 0.5 s⁻¹ | kon [1]: 19000 M⁻¹ s⁻¹ | Steady State RU [2]: 18.3 RU | Steady State RU [3]: 24.8 RU | Steady State RU [4]: 18.3 RU | Steady State RU [5]: 24.8 RU | koff [6]: 0.00338 s⁻¹ | FcγRIIIa V158 Affinity Fold Change (relative to WT) [12]: 1.04 fold | Steady State RU [7]: 18.5 RU | koff [9]: 0.052 s⁻¹ | kon [9]: 193000 M⁻¹ s⁻¹ | Kd [10]: 74 nM | koff [10]: 0.00658 s⁻¹ | kon [10]: 90800 M⁻¹ s⁻¹
Substance: mAb1 M428L/N434S (antibody)

fold slower off-rate vs WT [13]: > 2 fold | kon [1]: 350000 M⁻¹ s⁻¹ | Steady State RU [2]: 22.2 RU | Steady State RU [3]: 61.5 RU | Steady State RU [4]: 20.1 RU | Steady State RU [5]: 54.9 RU | koff [6]: 0.00118 s⁻¹ | FcγRIIIa V158 Affinity Fold Change (relative to WT) [12]: 1.16 fold | % enhanced binding vs WT [8]: 16 to 40% | Kd [14]: 165 nM | koff [14]: 0.05 s⁻¹ | kon [14]: 350000 M⁻¹ s⁻¹ | Kd [15]: 26 nM | koff [15]: 0.0034 s⁻¹ | kon [15]: 126000 M⁻¹ s⁻¹ | Kd [9]: 165 nM | koff [9]: 0.05 s⁻¹ | kon [9]: 354000 M⁻¹ s⁻¹ | Kd [10]: 26 nM | koff [10]: 0.00336 s⁻¹ | kon [10]: 126000 M⁻¹ s⁻¹
Substance: mAb1 N434F (antibody)

fold slower off-rate vs WT [13]: > 2 fold | koff [1]: 0.05 s⁻¹ | kon [1]: 360000 M⁻¹ s⁻¹ | Steady State RU [2]: 25.5 RU | Steady State RU [3]: 66 RU | Steady State RU [4]: 22.6 RU | Steady State RU [5]: 47 RU | koff [6]: 0.00133 s⁻¹ | FcγRIIIa V158 Affinity Fold Change (relative to WT) [12]: 1.41 fold | % enhanced binding vs WT [8]: 16 to 40% | Kd [14]: 137 nM | koff [14]: 0.05 s⁻¹ | kon [14]: 360000 M⁻¹ s⁻¹ | Kd [15]: 23 nM | koff [15]: 0.0035 s⁻¹ | kon [15]: 145000 M⁻¹ s⁻¹ | Kd [9]: 137 nM | koff [9]: 0.052 s⁻¹ | kon [9]: 359000 M⁻¹ s⁻¹ | Kd [10]: 23 nM | koff [10]: 0.00346 s⁻¹ | kon [10]: 145000 M⁻¹ s⁻¹
Substance: mAb1 N434Y (antibody)

koff [1]: 0.87 s⁻¹ | kon [1]: 38000 M⁻¹ s⁻¹ | Kd [11]: 9.5 nM | Steady State RU [2]: 10.7 RU | Steady State RU [3]: 39.1 RU | FcγRIIIa V158 Affinity Fold Change (relative to WT) [12]: 0.73 fold | Kd [9]: 232 nM | koff [9]: 0.0872 s⁻¹ | kon [9]: 376000 M⁻¹ s⁻¹ | Kd [10]: 9.54 nM | koff [10]: 0.00127 s⁻¹ | kon [10]: 133000 M⁻¹ s⁻¹
Substance: mAb1 T256D/T307Q (antibody)

koff [1]: 0.89 s⁻¹ | kon [1]: 53000 M⁻¹ s⁻¹ | Kd [11]: 8.2 nM | Steady State RU [2]: 12.2 RU | Steady State RU [3]: 42.1 RU | FcγRIIIa V158 Affinity Fold Change (relative to WT) [12]: 0.89 fold | Kd [9]: 169 nM | koff [9]: 0.0892 s⁻¹ | kon [9]: 529000 M⁻¹ s⁻¹ | Kd [10]: 8.24 nM | koff [10]: 0.00129 s⁻¹ | kon [10]: 157000 M⁻¹ s⁻¹
Substance: mAb1 T256D/T307W (antibody)

Steady State RU [4]: 13.9 RU | Steady State RU [5]: 23.6 RU | koff [6]: 0.00377 s⁻¹ | Steady State RU [7]: 13.1 RU | Kd [9]: 1780 nM | koff [9]: 0.144 s⁻¹ | kon [9]: 83700 M⁻¹ s⁻¹ | Kd [10]: 77 nM | koff [10]: 0.0117 s⁻¹ | kon [10]: 157000 M⁻¹ s⁻¹
Substance: mAb1 T307A/E380A/N434A (antibody)

pH 7.4 RU [16]: 91.7 RU | Ka [17]: 1.11e+08 M⁻¹ | Steady State Binding, pH 7.4 (RU) [18]: 68.6 RU | Steady State RU (pH 7.4) [19]: 91.7 RU | FcγRIIIa Binding (RU) [20]: 93.2 RU
Substance: mAb1 YDQF variant (M252Y/T256D/T307Q/N434F) (antibody)

Ratio (pH 6.0/pH 7.4) [21]: 2.93e+06 | pH 7.4 RU [16]: 103 RU | Kd [22]: 2.7 nM | Kd [23]: 2.7 nM | Ka [17]: 2.35e+08 M⁻¹ | Steady State Binding, pH 7.4 (RU) [18]: 80.2 RU | Steady State RU (pH 7.4) [19]: 103 RU | FcγRIIIa Binding (RU) [20]: 119 RU | Ratio (pH 7.4/pH 6.0) [24]: 3.41e-07
Substance: mAb1 YDQY variant (M252Y/T256D/T307Q/N434Y) (antibody)

Ratio (pH 6.0/pH 7.4) [21]: 3.01e+06 | pH 7.4 RU [16]: 91.2 RU | Kd [22]: 5.2 nM | Kd [23]: 5.2 nM | Ka [17]: 2.66e+08 M⁻¹ | Steady State Binding, pH 7.4 (RU) [18]: 88.5 RU | Steady State RU (pH 7.4) [19]: 91.2 RU | FcγRIIIa Binding (RU) [20]: 104 RU | Ratio (pH 6.0/pH 7.4) [24]: 3.33e-07
Substance: mAb1 YDWY variant (M252Y/T256D/T307W/N434Y) (antibody)

FcγRIIIa V158 Affinity Fold Change (fold relative to WT) [25]: 1.05 | Steady State RU (pH 7.4) [26]: 248 RU | Steady State RU (pH 7.4) [27]: 14 RU | Steady State RU (pH 7.4) [28]: 11 RU | Kd [29]: 24 nM | Kd [30]: 97 nM | Kd [31]: 110 nM
Substance: mAb2 DQ (T256D/T307Q) (antibody)

FcγRIIIa V158 Affinity Fold Change (fold relative to WT) [25]: 1.15 | Steady State RU (pH 7.4) [26]: 257 RU | Steady State RU (pH 7.4) [27]: 18 RU | Steady State RU (pH 7.4) [28]: 15 RU | Kd [29]: 13 nM | Kd [30]: 69 nM | Kd [31]: 99 nM
Substance: mAb2 DW (T256D/T307W) (antibody)

FcγRIIIa V158 Affinity Fold Change (fold relative to WT) [25]: 1.23 | Steady State RU (pH 7.4) [26]: 285 RU | Steady State RU (pH 7.4) [27]: 44 RU | Steady State RU (pH 7.4) [28]: 38 RU | Kd [29]: 20 nM | Kd [30]: 113 nM | Kd [31]: 210 nM
Substance: mAb2 LS (M428L/N434S) (antibody)

FcγRIIIa V158 Affinity Fold Change (fold relative to WT) [25]: 0.58 | Steady State RU (pH 7.4) [26]: 394 RU | Steady State RU (pH 7.4) [27]: 27 RU | Steady State RU (pH 7.4) [28]: 22 RU | Kd [29]: 10 nM | Kd [30]: 99 nM | Kd [31]: 120 nM
Substance: mAb2 YD (M252Y/T256D) (antibody)
